± gives the standard deviation.
Assay: protein stability index of a GFP-peptide fusion (GPS, HEK-293T) (PSI 1-6); higher = more stable
[1] = treatment: DMSO, c terminus: a fixed tail appended
[2] = treatment: MLN4924 1 uM, 8 h, c terminus: a fixed tail appended
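Also: 24-mer peptide tiles fused after GFP, lentivirally expressed, FACS-sorted into six equal bins by GFP/DsRed ratio, decoded by Illumina sequencing, PSI is the read-weighted mean bin number.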

## LCQCHEGFALNPDKKTCTKIDYCA [MATN2]
[1]
  protein stability index: 2.95 ± 0.29
[2]
  protein stability index: 3.35 ± 0.6

## VFISSYMVLAPVFGYLGDRYNRKY [SPNS1]
[1]
  protein stability index: 3.16 ± 0.49
[2]
  protein stability index: 2.87 ± 0.62

## EYRQRRERNNIAVRKSRDKAKRRN [CEBPD]
[1]
  protein stability index: 4.42 ± 0.36
[2]
  protein stability index: 4.426 ± 0.023

## GRGAQGENERVRGLETGDWGGAPK [ZSWIM9]
[1]
  protein stability index: 5 ± 0.21
[2]
  protein stability index: 4.98 ± 0.24

## TPEAKDLINKMLTINPSKRITAAE [CAMK2A]
[1]
  protein stability index: 4.28 ± 0.17
[2]
  protein stability index: 4.42 ± 0.1

## QLEEKLEIANEDRKHALERFEQEA [CCDC89]
[1]
  protein stability index: 5.4 ± 0.19
[2]
  protein stability index: 5.4 ± 0.12

## KARSYSYPHCTGISQQDPESDSQG [ZC2HC1C]
[1]
  protein stability index: 5.28 ± 0.28
[2]
  protein stability index: 5.25 ± 0.076

## REHAKARVDHGAEIITQSPGRSSV [MAP2]
[1]
  protein stability index: 4.75 ± 0.11
[2]
  protein stability index: 4.89 ± 0.12

## QAFQLPKLGALLSRCRKLVEYFQQ [ZBED1]
[1]
  protein stability index: 2.52 ± 0.5
[2]
  protein stability index: 2.43 ± 0.29

## AAYFLLSTNDKTVKLWKVSERDKR [PPP2R2B]
[1]
  protein stability index: 2.51 ± 0.51
[2]
  protein stability index: 2.49 ± 0.26

## HYAFRIFDFDDDGTLNREDLSRLV [CIB1]
[1]
  protein stability index: 2.55 ± 0.24
[2]
  protein stability index: 2.78 ± 0.31

## RNRAITARRQHLKSVMLQIAATEL [TNNI2]
[1]
  protein stability index: 2.4 ± 0.25
[2]
  protein stability index: 2.72 ± 0.33

## CEEKAKKNANRPLLDEIVPVYRRD [ACBD3]
[1]
  protein stability index: 4.72 ± 0.18
[2]
  protein stability index: 4.61 ± 0.55

## PALCFAAAIFSLFFVPLSYLLMVT [TMEM175]
[1]
  protein stability index: 3.03 ± 0.093
[2]
  protein stability index: 3.31 ± 0.21

## ELLVYIVFLVDICLLTYGMTSSSA [PKD2L1]
[1]
  protein stability index: 3.19 ± 0.45
[2]
  protein stability index: 2.93 ± 0.67

## PGQPLPGASVRGLHPVQKVILNYP [TRAF3IP2]
[1]
  protein stability index: 3.55 ± 0.36
[2]
  protein stability index: 3.45 ± 0.52

## SREWSGKEKWWDGQRDRKAEHWKH [PBXIP1]
[1]
  protein stability index: 3.69 ± 0.27
[2]
  protein stability index: 3.91 ± 0.064

## LAAPSLHVKEQLPCAGLNCQALDA [TLE6]
[1]
  protein stability index: 3.92 ± 0.25
[2]
  protein stability index: 3.97 ± 0.28

## KWTGDFFNKGIYDIHVGLRGVPLL [CLCN6]
[1]
  protein stability index: 2.86 ± 0.8
[2]
  protein stability index: 2.24 ± 0.44

## EKNFFPEYNYDWWEKKPFSEDVNW [CHGB]
[1]
  protein stability index: 2.78 ± 0.54
[2]
  protein stability index: 2.76 ± 0.47

## EEVVSTLDAVQVLSGVSQLLPKSR [FCHO1]
[1]
  protein stability index: 4.3 ± 0.28
[2]
  protein stability index: 4.43 ± 0.24

## TKFEVRLLRDPADASEAHESSSRG [CHGB]
[1]
  protein stability index: 4.61 ± 0.26
[2]
  protein stability index: 4.64 ± 0.12

## ILISFTCRFLLNSRVTDAAFNFLL [TMEM120A]
[1]
  protein stability index: 2.9 ± 0.38
[2]
  protein stability index: 3.25 ± 0.23

## VLKVLSVCSSNKPAIVEAGGMQAL [CTNNB1]
[1]
  protein stability index: 2.46 ± 0.24
[2]
  protein stability index: 2.46 ± 0.098

## PCLDQTRVKLTKRSGHTQTDYINA [PTPN9]
[1]
  protein stability index: 3.99 ± 0.59
[2]
  protein stability index: 3.91 ± 0.1

## VTSFDSVVPEKLDDLVPKGKKFLL [ALG2]
[1]
  protein stability index: 3.32 ± 0.25
[2]
  protein stability index: 3.31 ± 0.16

## ALIPYVLNPSKLMEKEINGSKVTC [ATL3]
[1]
  protein stability index: 2.13 ± 0.2
[2]
  protein stability index: 2.2 ± 0.39

## STPLMEAAQEGHLELVKYLLAAGA [ANKRD17]
[1]
  protein stability index: 2.22 ± 0.15
[2]
  protein stability index: 2.48 ± 0.65

## YSFGSGGGYGSSFGGVDGLLAGGE [KRT17]
[1]
  protein stability index: 2.84 ± 0.13
[2]
  protein stability index: 2.9 ± 0.098

## SLWERLEFVNGWYILLVTSDVLTI [MCOLN1]
[1]
  protein stability index: 3.5 ± 0.68
[2]
  protein stability index: 3.08 ± 0.45

## DSYSSSRSDLYSSGRDRVGRQERG [RBMX]
[1]
  protein stability index: 4.72 ± 0.059
[2]
  protein stability index: 4.84 ± 0.22

## ELIGDYSKAFLLQTVDGKHQDLKY [CDC25B]
[1]
  protein stability index: 2.41 ± 0.18
[2]
  protein stability index: 2.51 ± 0.29

## ISAVNYDFDEEYFSNTSELAKDFI [DAPK3]
[1]
  protein stability index: 3.01 ± 0.21
[2]
  protein stability index: 3.28 ± 0.58

## QEPEVPCAAVLPGKPGDRNCPEFP [RSPH3]
[1]
  protein stability index: 5.21 ± 0.12
[2]
  protein stability index: 5.13 ± 0.14

## REHELLCRADHGLLLERAAAGSPR [ISL2]
[1]
  protein stability index: 3.82 ± 0.31
[2]
  protein stability index: 3.89 ± 0.062

## IVETLTVGCKGSKAGIEQEGYWLP [ZMYND11]
[1]
  protein stability index: 2.21 ± 0.18
[2]
  protein stability index: 2.26 ± 0.14

## PPSEPVPSLEDISCNTWPSMPSYS [TBX5]
[1]
  protein stability index: 4.269 ± 0.038
[2]
  protein stability index: 4.38 ± 0.19

## TMIQQQNMQQPMNVMTQSFGAVNL [CLINT1]
[1]
  protein stability index: 2.69 ± 0.39
[2]
  protein stability index: 2.94 ± 0.39

## HQRDGTLGALHTSSKPTALPSASS [SASS6]
[1]
  protein stability index: 4.57 ± 0.25
[2]
  protein stability index: 4.55 ± 0.12

## MSNHTRERVTVAKLTLENFYSNLI [STK38L]
[1]
  protein stability index: 2.21 ± 0.16
[2]
  protein stability index: 2.31 ± 0.31

## NLISPVRNGAVRRFGQTIQSFTLR [NET1]
[1]
  protein stability index: 2.65 ± 0.32
[2]
  protein stability index: 2.7 ± 0.14

## TSSSLGDKSEYLEMEEGVKESLCA [KCNA4]
[1]
  protein stability index: 5.1 ± 0.14
[2]
  protein stability index: 4.77 ± 0.41

## GSGADSEPARHIFSFSWLNSLNE [TRIM55]
treatment: DMSO, c terminus: native
  protein stability index: 3.53 ± 0.41
treatment: MLN4924 1 uM, 8 h, c terminus: native
  protein stability index: 3.53 ± 0.26

## DGEEIPVQKNILAAASPYIRTKLN [GAN]
[1]
  protein stability index: 4.13 ± 0.33
[2]
  protein stability index: 4.32 ± 0.28

## SSCNGPGQTTGHPYYLRSFLVVLK [FAN1]
[1]
  protein stability index: 2.21 ± 0.47
[2]
  protein stability index: 2.51 ± 0.47
